Measurements: publication PMC3266742 (Molecular Cell, 2010)

Biological target: ubiquitin (mono-Ub), untagged, purified (UniProt P0CG47 1-76)
Assay: NMR titration

B1: 6xHis-tagged Doa1 β-Prp (domain or fragment, S. cerevisiae)
chain: GYQLSATLKGHDQDVRDVVAVDDSKVASVSRDGTVRLWSKDDQWLGTVVYTGQGFLNSVCYDSEKELLLFGGKDTMINGVPLFATSGEDPLYTLIGHQGNVCSLSFQDGVVISGSWDKTAKVWKEGSLVYNLQAHNASVWDAKVVSFSENKFLTASADKTIKLWQNDKVIKTFSGIHNDVVRHLAVVDDGHFISCSNDGLIKLVDMHTGDVLRTYEGHESFVYCIKLLPNGDIVSCGEDRTVRIWSKENGSLKQVITLPAISIWSVDCMSNGDIIVGSSDNLVRIFSQEKSRWASEDEI
A Kd of 224 µM was found for B1 in this work.
